Test results as given in patent publication US20090162360A1 (Hoffmann-La Roche, published 2009).

T1: human ANGPT2 (R&D Systems) (human, UniProt O15123 19-496, limits assumed)
T1 construct: also called hANGPT2; Ang-2
T1 sequence (looked up): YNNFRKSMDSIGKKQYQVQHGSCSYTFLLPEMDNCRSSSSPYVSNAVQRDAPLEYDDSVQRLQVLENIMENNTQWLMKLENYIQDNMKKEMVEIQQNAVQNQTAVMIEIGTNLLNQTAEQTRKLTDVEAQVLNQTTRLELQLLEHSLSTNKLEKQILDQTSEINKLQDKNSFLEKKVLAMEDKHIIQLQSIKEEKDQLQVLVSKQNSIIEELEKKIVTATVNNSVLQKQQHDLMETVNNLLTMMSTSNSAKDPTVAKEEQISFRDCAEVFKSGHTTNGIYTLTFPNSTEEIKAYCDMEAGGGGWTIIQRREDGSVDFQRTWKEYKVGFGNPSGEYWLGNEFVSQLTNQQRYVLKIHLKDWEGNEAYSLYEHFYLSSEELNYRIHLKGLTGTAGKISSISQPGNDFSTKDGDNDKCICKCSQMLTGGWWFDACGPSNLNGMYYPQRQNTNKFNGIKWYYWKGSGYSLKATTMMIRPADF


How the values were obtained:
[1] = target: T2, recombinant human IGF-1R on I24 cells (human, UniProt P08069 31-1367); test: cellular FACS IGF-1R-ANGPT2 bridging assay on I24 cells with 2 µg/mL hANGPT2, detection <ANGPT2>mIgG1-Biotin + Streptavidin-PE
T2 construct: whole, on cells; also called IGF-1R in I24 cells; I24 IGF-1R expressing cells (NIH3T3 cells expressing recombinant human IGF-1R)
Experimental: (§1) The assay principle is depicted in FIG. 10.
(§2) Briefly, 5×10E5 I24 cells per FACS tube were incubated with total purified antibody mix and incubated on ice for 1 h (titration 160 μg/ml mix). The respective purified antibodies wildtype <IGF-1R> and <ANGPT2> were applied to the I24 cells as controls. Unbound antibody was washed away with 4 ml ice cold PBS (Gibco)+2% FCS (Gibco), cells were centrifuged (5 min at 400 g) and bound bispecific antibody was detected with 50 μl 2 μg/mL human ANGPT2 (R&D Systems) for 1 h on ice. Subsequently, unbound ANGPT2 was washed away once or twice with 4 ml ice cold PBS (Gibco)+2% FCS (Gibco), cells were centrifuged (5 min at 400 g) and bound ANGPT2 was detected with 50 μl 5 μg/mL <ANGPT2>mIgG1-Biotin antibody (BAM0981, R&D Systems) for 45 min on ice; alternatively, cells were incubated with 50 μl 5 μg/mL mIgG1-Biotin-Isotype control (R&D Systems). Unbound detection antibody was washed away with 4 ml ice cold PBS (Gibco)+2% FCS (Gibco), cells were centrifuged (5 min at 400 g) and bound detection antibody was detected with 50 μl 1:400 Streptavidin-PE conjugate (Invitrogen/Zymed) for 45 min on ice protected from light. Unbound Streptavidin-PE conjugate was washed away with 4 ml ice cold PBS+2% FCS. […]

[2] = target: T1, human ANGPT2 (R&D Systems); test: as above
Experimental: as §1, §2

Binder	binding result [1]	binding result [2]
monospecific, bivalent <ANGPT2> wildtype antibody (antibody, V domains shown, Human IgG1/kappa antibody described in WO 2006/045049; also called wildtype <ANGPT2> antibody; <Ang-2> control antibody) VH: EVQLVQSGGGVVQPGRSLRLSCAASGFTFSSYGMHWVRQAPGKGLEWVSYISSSGSTIYYADSVKGRFTISRDNAKNSLYLQMNSLRAEDTAVYYCARDLLDYDILTGYGYWGQGTLVTVSS VL: not shown	no binding	
wildtype <IGF-1R> antibody (antibody, V domains shown, Human IgG1/kappa antibody described in WO 2005/005635; also called <IGF-1R> wildtype antibody; original wildtype <IGF-1R> antibody) VH: QVELVESGGGVVQPGRSQRLSCAASGFTFSSYGMHWVRQAPGKGLEWVAIIWFDGSSTYYADSVRGRFTISRDNSKNTLYLQMNSLRAEDTAVYFCARELGRRYFDLWGRGTLVSVSS VL: EIVLTQSPATLSLSPGERATLSCRASQSVSSYLAWYQQKPGQAPRLLIYDASKRATGIPARFSGSGSGTDFTLTISSLEPEDFAVYYCQQRSKWPPWTFGQGTKVESKR		no binding
